Here are results for seven molecules from paper PMC4218836, “Generation of a Single Chain Antibody Variable Fragment (scFv) to Sense Selectively RhoB Activation” (PLoS ONE, 2014).

As usually defined, the Kd is the equilibrium constant for the complex coming apart. Higher therefore signals weaker binding.

The target in one assay is GST-RhoCL63 (Homo sapiens (species assumed), UniProt P08134, L63).
For assay [1], the target named is T1, GST-RhoBL63 (Homo sapiens (species assumed), UniProt P62745, L63).
The next assay has as its target GST-RhoAL63 (Homo sapiens (species assumed), UniProt P61586, L63).
The target of another assay is T2, endogenous RhoC (Homo sapiens (HeLa S3), UniProt P08134).
T2 construct: RhoC, endogenous in HeLa S3 cells; source: endogenous, HeLa cell extract
The assay is described as follows: pull-down; CBD-pulldown: scFv-bound chitin beads (0,5-1 µg) with HeLa cell extracts loaded with GTPγS (100 µM), 45 min at 4°C; Western blot with anti-RhoA, anti-RhoB, anti-RhoC; GDP-loaded extracts beside it. As to conditions: one partner purified.

A further assay deals with T3, endogenous RhoA (human (endogenous in HeLa), UniProt P61586).
T3 construct: RhoA, endogenous in HeLa S3 cells; source: endogenous, HeLa cell extract
The assay is described as above. As to conditions: one partner purified.

For a further assay, the target named is T4, endogenous RhoB (human (endogenous in HeLa), UniProt P62745).
T4 construct: RhoB, endogenous in HeLa S3 cells; source: endogenous, HeLa cell extract
The assay is described as above. The conditions noted are these: one partner purified.

Assay [2] concerns the target T5, recombinant wild type GST-RhoB (Homo sapiens (species assumed), UniProt P62745).
T5 construct: RhoB wild type, loaded with GDP or GTPγS; also called RhoBwt; GST-RhoBwt; source: E. coli BL21, crude bacterial extract, nucleotide-loaded
The assay is described as follows: ELISA; purified scFvs on wild type GST-Rho loaded with GTPγS (from crude bacterial extracts) and captured on glutathione coated plates; GDP-loaded GST-Rho beside it. As to conditions: one partner purified. (In an ELISA, binding on a coated surface is turned into a signal by an enzyme label.)

For assay [3], the target named is T6, recombinant wild type GST-RhoA (Homo sapiens (species assumed), UniProt P61586).
T6 construct: RhoA wild type, loaded with GDP or GTPγS; also called RhoAwt; RhoA-GTPγS; source: E. coli BL21, crude bacterial extract, nucleotide-loaded
The description is as above. The conditions noted are these: one partner purified.

In another assay the target is T7, 6xHis-RhoAL63 (Homo sapiens (species assumed), UniProt P61586, L63).
T7 construct: RhoA, mutant L63, cDNA in the pHIS parallel2 vector; also called 6his-RhoL63; source: E. coli BL21, purified (Ni-NTA, native condition); not shown: 6xHis, N-terminal, kept
The assay is described as follows: ELISA; competitive ELISA (method of Friguet): purified scFvs (10^-9-10^-8 M) incubated until equilibrium (30 min, 23-25°C) with a range of concentrations of soluble 6xHis-RhoL63, free scFv then quantified on GST-Rho-coated plates with anti-c-myc-HRP; nonlinear regression. The conditions noted are these: both partners purified.

The target in the next assay is T8, 6xHis-RhoBL63 (Homo sapiens (species assumed), UniProt P62745, L63).
T8 construct: RhoB, mutant L63, cDNA in the pHIS parallel2 vector; also called 6his-RhoL63; source: E. coli BL21, purified (Ni-NTA, native condition); not shown: 6xHis, N-terminal, kept
Described as above. The conditions noted are these: both partners purified.

Assay [4] concerns the target T1, GST-RhoBL63. The assay is described as follows: SPR; BIAcore T200; GST fusion Rho captured (about 1000 RU) by anti-GST antibody on CM5 chip, scFvs injected 6.25-100 nM, single-cycle kinetics, HBS-P pH 7.4, 25°C, GST alone as reference channel, 1:1 Langmuir model. The conditions noted are these: both partners purified.

Residue numbers refer to the chain shown, from its start. In names and notes the source's numbering stands.

T7 sequence (P61586 other isoform, or with tags, fused parts or gaps L63 | L63): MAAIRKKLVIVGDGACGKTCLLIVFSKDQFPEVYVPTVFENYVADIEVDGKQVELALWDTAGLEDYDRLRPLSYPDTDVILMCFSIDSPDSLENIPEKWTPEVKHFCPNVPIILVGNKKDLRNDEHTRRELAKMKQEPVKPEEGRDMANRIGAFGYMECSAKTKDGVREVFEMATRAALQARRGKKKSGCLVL
T5 sequence (P62745 whole entry): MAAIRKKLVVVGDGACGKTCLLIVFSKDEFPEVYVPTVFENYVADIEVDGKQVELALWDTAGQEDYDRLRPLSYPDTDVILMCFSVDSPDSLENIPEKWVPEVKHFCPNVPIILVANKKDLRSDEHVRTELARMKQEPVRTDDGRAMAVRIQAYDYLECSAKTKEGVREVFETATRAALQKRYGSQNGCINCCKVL
T3 sequence (P61586 whole entry): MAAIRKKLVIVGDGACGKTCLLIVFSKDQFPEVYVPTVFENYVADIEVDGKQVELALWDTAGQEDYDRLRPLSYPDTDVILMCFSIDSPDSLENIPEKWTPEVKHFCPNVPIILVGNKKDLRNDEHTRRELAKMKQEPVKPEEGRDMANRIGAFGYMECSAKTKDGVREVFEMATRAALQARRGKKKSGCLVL
T6 sequence (P61586 whole entry): as above
T4 sequence (P62745 whole entry): as the sequence (P62745 whole entry) above
T1 sequence (P62745 other isoform, or with tags, fused parts or gaps L63 | L63): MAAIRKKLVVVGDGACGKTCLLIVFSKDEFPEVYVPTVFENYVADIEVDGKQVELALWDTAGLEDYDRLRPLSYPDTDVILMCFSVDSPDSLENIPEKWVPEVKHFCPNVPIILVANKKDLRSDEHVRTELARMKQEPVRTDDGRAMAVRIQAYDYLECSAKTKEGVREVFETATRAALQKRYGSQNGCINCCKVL
T8 sequence (P62745 other isoform, or with tags, fused parts or gaps L63 | L63): as above
T2 sequence (P08134 whole entry): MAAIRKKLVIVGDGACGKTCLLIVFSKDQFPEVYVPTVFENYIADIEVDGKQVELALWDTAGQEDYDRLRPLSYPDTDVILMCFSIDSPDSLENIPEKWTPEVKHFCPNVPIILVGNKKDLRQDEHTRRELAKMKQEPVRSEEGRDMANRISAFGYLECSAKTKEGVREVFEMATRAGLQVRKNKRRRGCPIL
Sequence of GST-RhoAL63 (P61586 other isoform, or with tags, fused parts or gaps L63 | L63): as the sequence (P61586 other isoform, or with tags, fused parts or gaps L63 | L63) above
Sequence of GST-RhoCL63 (P08134 other isoform, or with tags, fused parts or gaps L63 | L63): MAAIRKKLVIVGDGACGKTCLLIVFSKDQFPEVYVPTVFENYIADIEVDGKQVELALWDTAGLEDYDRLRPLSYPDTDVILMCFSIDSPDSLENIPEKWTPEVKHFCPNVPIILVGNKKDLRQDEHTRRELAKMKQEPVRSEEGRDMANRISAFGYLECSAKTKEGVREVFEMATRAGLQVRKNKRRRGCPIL

B1: C1 (scFvC1) (antibody, V domains shown)
VH: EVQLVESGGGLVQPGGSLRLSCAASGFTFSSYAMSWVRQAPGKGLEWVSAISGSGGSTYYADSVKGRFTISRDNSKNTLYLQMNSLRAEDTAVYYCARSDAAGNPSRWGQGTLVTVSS
VL: SSELTQDPAVSVALGQTVRITCQGDSLRSYYASWYQQKPGQAPVLVIYGKNNRPSGIPDRFSGSSSGNTASLTITGAQAEDEADYYCNSRDSSGNHAYVFGGGTKLTVL
Consider B1, for which the binding result with GST-RhoCL63, with GST-RhoBL63 [1] and with GST-RhoAL63 was “binds” in each case.

B2: scFvF7-NP3-CBD (scFvF7 in fusion with the Chitin Binding Domain, on chitin beads) (scFv, V domains shown)
VH: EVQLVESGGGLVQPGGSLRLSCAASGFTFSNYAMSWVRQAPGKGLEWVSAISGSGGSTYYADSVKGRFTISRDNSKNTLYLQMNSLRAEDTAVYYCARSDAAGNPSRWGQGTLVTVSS
VL: B1 VL with S89T
notes: as the scFv of m1; Order scFv, NP3, CBD from the plasmid pHEN-scFv-NCBD; not shown: NP3 (N-terminal domain of the phage P3 protein), C-terminal, kept
Consider B2, for which the binding result with endogenous RhoC, with endogenous RhoA and with endogenous RhoB was “binds” in each case.

B3: scFvD10 (soluble, in fusion with the N-terminal domain of the phage P3 protein) (scFv, V domains shown)
VH: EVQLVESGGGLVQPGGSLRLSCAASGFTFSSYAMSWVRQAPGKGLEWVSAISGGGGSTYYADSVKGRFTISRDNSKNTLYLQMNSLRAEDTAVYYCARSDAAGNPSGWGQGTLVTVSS
VL: B1 VL
notes: evolved variant of scFvC1 (VH, linker, VL); also called clone D10; source: E. coli XL1 blue, periplasmic fraction, purified (Ni-NTA); not shown: NP3 (N-terminal domain of the phage P3 protein), C-terminal, kept
B3: the results for the binding result in assay [2] and in [3] were “no binding” and “binds”, respectively. The affinity with 6xHis-RhoAL63, expressed as Kd, was 3.38 nM.

B4: scFvD10-NP3-CBD (scFvD10 in fusion with the Chitin Binding Domain, on chitin beads) (scFv, V domains shown)
VH: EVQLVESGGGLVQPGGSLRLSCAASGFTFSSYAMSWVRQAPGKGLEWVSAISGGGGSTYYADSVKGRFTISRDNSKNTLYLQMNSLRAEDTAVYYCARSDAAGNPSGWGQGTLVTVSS
VL: B1 VL
notes: as the scFv of m2; Order scFv, NP3, CBD from the plasmid pHEN-scFv-NCBD; not shown: NP3 (N-terminal domain of the phage P3 protein), C-terminal, kept
As for B4, the binding result with endogenous RhoC and with endogenous RhoA was “binds” each time.

B5: scFvF7 (soluble, in fusion with the N-terminal domain of the phage P3 protein) (scFv, V domains shown)
VH: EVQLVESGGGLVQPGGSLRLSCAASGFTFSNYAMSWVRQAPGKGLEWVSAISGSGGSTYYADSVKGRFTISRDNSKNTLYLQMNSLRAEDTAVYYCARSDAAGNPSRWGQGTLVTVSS
VL: B1 VL with S89T
notes: evolved variant of scFvC1 (VH, linker, VL); also called clone F7; source: E. coli XL1 blue, periplasmic fraction, purified (Ni-NTA); not shown: NP3 (N-terminal domain of the phage P3 protein), C-terminal, kept
For B5, the binding result in assay [2] and in assay [3] was “binds” each time. Besides, the figures for the Kd in the assay with 6xHis-RhoAL63 and with 6xHis-RhoBL63 were 2.33 nM and 4.94 nM, respectively.

B6: scFvE3 (soluble, in fusion with the N-terminal domain of the phage P3 protein) (scFv, V domains shown)
VH: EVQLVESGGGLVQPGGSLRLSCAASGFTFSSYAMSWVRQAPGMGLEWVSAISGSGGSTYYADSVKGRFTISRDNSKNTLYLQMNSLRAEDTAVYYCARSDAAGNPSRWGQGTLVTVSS
VL: B1 VL with A32T, L45R, I57V
notes: evolved variant of scFvC1 with 4 substitutions located within the scaffold, without D100N; Isolated by subtractive panning (GST-RhoAL63 counter-selection, GST-RhoBL63 selection); also called clone E3; source: E. coli XL1 blue, periplasmic fraction, purified (Ni-NTA); not shown: NP3 (N-terminal domain of the phage P3 protein), C-terminal, kept
On to B6, for which the “fold higher affinity than for GST-RhoAL63” value with GST-RhoBL63 [4] was 10 fold. Further, the binding result in [2] was “binds”. Further, the Kd is 22.9 nM with 6xHis-RhoAL63 and 3.63 nM in the assay with 6xHis-RhoBL63.

B7: scFvE3-NP3-CBD (scFvE3 in fusion with the Chitin Binding Domain, on chitin beads) (scFv, V domains shown)
VH: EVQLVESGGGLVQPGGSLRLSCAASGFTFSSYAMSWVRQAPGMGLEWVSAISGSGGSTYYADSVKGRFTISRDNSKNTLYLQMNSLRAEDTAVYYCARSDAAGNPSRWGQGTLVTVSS
VL: B1 VL with A32T, L45R, I57V
notes: as the scFv of m3; Order scFv, NP3, CBD from the plasmid pHEN-scFv-NCBD; not shown: NP3 (N-terminal domain of the phage P3 protein), C-terminal, kept
Regarding B7, in the assay with endogenous RhoB, the binding result is on record as “binds”.
